Data as given in patent US20120058906A1 (published 2012).
One block for each binder: values may come before it.

Columns and labels:
[1] = target: T1, rHuman ErbB2/Fc Chimera, CF (R&D Systems Cat#1129-ER) (human, UniProt P04626 23-652); assay: ECL (MSD multi-spot), Fab 232.5 nM; blank 460
T1 construct: Bought Fc chimera; also called human epidermal growth factor 2 receptor; HER2/neu; Fc part of the bought chimera not given

[2] = target: T2, rHuman CD44/Fc Chimera, CF (R&D Systems Cat#3660-CD) (human, UniProt P16070 21-220); assay: ECL (MSD multi-spot), Fab 232.5 nM; blank 460
T2 construct: Bought Fc chimera; Fc part of the bought chimera not given

[3] = target: T3, rHuman Notch-1/Fc Chimera, CF (R&D Systems Cat#3647-TK) (human, UniProt P46531 19-526); assay: ECL (MSD multi-spot), Fab 232.5 nM; blank 460
T3 construct: Bought Fc chimera; Fc part of the bought chimera not given

[4] = target: T4, Recombinant Human DLL4 (R&D Systems Cat#1506-D4/CF) (human, UniProt Q9NR61 27-524); assay: ECL (MSD multi-spot), Fab 232.5 nM; blank 460
T4 construct: Bought recombinant protein; also called delta-like protein 4

[5] = target: T5, rHuman Erythropoietin R/Fc Chimera, CF (R&D Systems Cat#963-ER) (human, UniProt P19235 25-250); assay: ECL (MSD multi-spot), Fab 232.5 nM; blank 460
T5 construct: Bought Fc chimera; also called EPO R/Fc; Epo R; Fc part of the bought chimera not given
T5 sequence: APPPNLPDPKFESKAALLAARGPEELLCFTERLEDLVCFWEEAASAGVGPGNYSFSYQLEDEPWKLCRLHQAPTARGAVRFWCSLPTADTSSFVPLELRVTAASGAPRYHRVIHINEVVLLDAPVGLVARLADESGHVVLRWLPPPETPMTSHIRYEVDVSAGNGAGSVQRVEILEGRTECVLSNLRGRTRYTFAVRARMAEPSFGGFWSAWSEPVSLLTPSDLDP

[6] = target: T1, rHuman ErbB2/Fc Chimera, CF (R&D …); assay: ECL (MSD multi-spot), Fab 58.1 nM; blank 225
[7] = target: T2, rHuman CD44/Fc Chimera, CF (R&D Systems …); assay: ECL (MSD multi-spot), Fab 58.1 nM; blank 225
[8] = target: T3, rHuman Notch-1/Fc Chimera, CF (R&D …); assay: ECL (MSD multi-spot), Fab 58.1 nM; blank 225
[9] = target: T4, Recombinant Human DLL4 (R&D Systems …); assay: ECL (MSD multi-spot), Fab 58.1 nM; blank 225
[10] = target: T5, rHuman Erythropoietin R/Fc Chimera, CF …; assay: ECL (MSD multi-spot), Fab 58.1 nM; blank 225
[11] = target: T1, rHuman ErbB2/Fc Chimera, CF (R&D …); assay: ECL (MSD multi-spot), Fab 14.5 nM; blank 117
[12] = target: T2, rHuman CD44/Fc Chimera, CF (R&D Systems …); assay: ECL (MSD multi-spot), Fab 14.5 nM; blank 117
[13] = target: T3, rHuman Notch-1/Fc Chimera, CF (R&D …); assay: ECL (MSD multi-spot), Fab 14.5 nM; blank 117
[14] = target: T4, Recombinant Human DLL4 (R&D Systems …); assay: ECL (MSD multi-spot), Fab 14.5 nM; blank 117
[15] = target: T5, rHuman Erythropoietin R/Fc Chimera, CF …; assay: ECL (MSD multi-spot), Fab 14.5 nM; blank 117
[16] = target: T1, rHuman ErbB2/Fc Chimera, CF (R&D …); assay: ECL (MSD multi-spot), Fab 930 nM; blank 1206
[17] = target: T2, rHuman CD44/Fc Chimera, CF (R&D Systems …); assay: ECL (MSD multi-spot), Fab 930 nM; blank 1206
[18] = target: T3, rHuman Notch-1/Fc Chimera, CF (R&D …); assay: ECL (MSD multi-spot), Fab 930 nM; blank 1206
[19] = target: T4, Recombinant Human DLL4 (R&D Systems …); assay: ECL (MSD multi-spot), Fab 930 nM; blank 1206
[20] = target: T5, rHuman Erythropoietin R/Fc Chimera, CF …; assay: ECL (MSD multi-spot), Fab 930 nM; blank 1206
[21] = target: T6, Recombinant Human DLL4 (R&D Systems Cat#1506-D4/CF) (human, UniProt Q9NR61 27-524); assay: MSD ECL multi-spot, Fab 0.21 uM, blank 529; row label 3 may be swapped with 4;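 also: blank spot per well as comparator with Hit at signal to blank ratio of 4 or more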
T6 construct: Bought recombinant protein; also called rHuman DLL4; delta-like protein 4

[22] = target: T7, rHuman ErbB2/Fc Chimera, CF (R&D Systems Cat#1129-ER) (human, UniProt P04626 23-652); assay: as above
T7 construct: Bought Fc chimera; also called HER2/neu; Fc part of the bought chimera not given

[23] = target: T8, rHuman P-Cadherin/Fc Chimera, CF (R&D Systems Cat#861-PC) (human, UniProt P22223 108-654); assay: as above
T8 construct: Bought Fc chimera; Fc part of the bought chimera not given

[24] = target: T9, rHuman CD44/Fc Chimera, CF (R&D Systems Cat#3660-CD) (human, UniProt P16070 21-220); assay: as above
T9 construct: Bought Fc chimera; Fc part of the bought chimera not given

[25] = target: T10, rHuman HGF R/c-MET/Fc Chimera, CF (R&D Systems Cat#358-MT/CF) (human, UniProt P08581 25-932); assay: as above
T10 construct: Bought Fc chimera; also called HGF R/Fc; Fc part of the bought chimera not given

[26] = target: T11, rHuman Notch-1/Fc Chimera, CF (R&D Systems Cat#3647-TK) (human, UniProt P46531 19-526); assay: as above
T11 construct: Bought Fc chimera; Fc part of the bought chimera not given

[27] = target: T12, rHuman IGF-1 sR (insulin-like growth factor-1 soluble receptor), CF (R&D Systems Cat#391-GR) (human, UniProt P08069 31-932); assay: as above
T12 construct: Bought soluble receptor; also called IGF-R1

[28] = target: T13, rHuman Erythropoietin R/Fc Chimera, CF (R&D Systems Cat#963-ER) (human, UniProt P19235 25-250); assay: as above
T13 construct: Bought Fc chimera; also called EPO R/Fc; EPOR; Fc part of the bought chimera not given
T13 sequence: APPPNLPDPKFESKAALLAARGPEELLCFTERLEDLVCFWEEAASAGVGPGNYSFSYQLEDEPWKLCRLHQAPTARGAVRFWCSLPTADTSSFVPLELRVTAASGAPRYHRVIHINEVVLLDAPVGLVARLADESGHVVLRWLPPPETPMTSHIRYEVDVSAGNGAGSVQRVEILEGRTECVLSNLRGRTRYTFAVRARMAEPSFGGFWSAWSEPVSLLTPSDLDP

[29] = target: T14, rHuman EGF R/Fc Chimera, CF (R&D Systems Cat#344-ER) (human, UniProt P00533 25-645); assay: as above
T14 construct: Bought Fc chimera; Fc part of the bought chimera not given

[30] = target: T6, Recombinant Human DLL4 (R&D Systems …); assay: MSD ECL multi-spot, Fab 0.74 uM, blank 692;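 also: blank spot per well as comparator with Hit at signal to blank ratio of 4 or more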
[31] = target: T7, rHuman ErbB2/Fc Chimera, CF (R&D …); assay: MSD ECL multi-spot, Fab 0.74 uM, blank 692;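 also: blank spot per well as comparator with Hit at signal to blank ratio of 4 or more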
[32] = target: T8, rHuman P-Cadherin/Fc Chimera, CF (R&D …); assay: MSD ECL multi-spot, Fab 0.74 uM, blank 692;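 also: blank spot per well as comparator with Hit at signal to blank ratio of 4 or more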
[33] = target: T9, rHuman CD44/Fc Chimera, CF (R&D Systems …); assay: MSD ECL multi-spot, Fab 0.74 uM, blank 692;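 also: blank spot per well as comparator with Hit at signal to blank ratio of 4 or more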
[34] = target: T10, rHuman HGF R/c-MET/Fc Chimera, CF (R&D …); assay: MSD ECL multi-spot, Fab 0.74 uM, blank 692;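 also: blank spot per well as comparator with Hit at signal to blank ratio of 4 or more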
[35] = target: T11, rHuman Notch-1/Fc Chimera, CF (R&D …); assay: MSD ECL multi-spot, Fab 0.74 uM, blank 692;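 also: blank spot per well as comparator with Hit at signal to blank ratio of 4 or more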
[36] = target: T12, rHuman IGF-1 sR (insulin-like growth …); assay: MSD ECL multi-spot, Fab 0.74 uM, blank 692
[37] = target: T13, rHuman Erythropoietin R/Fc Chimera, CF …; assay: MSD ECL multi-spot, Fab 0.74 uM, blank 692
[38] = target: T14, rHuman EGF R/Fc Chimera, CF (R&D …); assay: MSD ECL multi-spot, Fab 0.74 uM, blank 692
[39] = target: T15, rHuman Erythropoietin R/Fc Chimera, CF (R&D Systems, Cat#963-ER) (human, UniProt P19235 25-250); assay: ECL (MSD) Fab titration; binding affinity estimated from the 50% binding signal
T15 construct: Bought chimera; also called EPO R/Fc; Epo R; Fc part of the bought chimera not given
T15 sequence: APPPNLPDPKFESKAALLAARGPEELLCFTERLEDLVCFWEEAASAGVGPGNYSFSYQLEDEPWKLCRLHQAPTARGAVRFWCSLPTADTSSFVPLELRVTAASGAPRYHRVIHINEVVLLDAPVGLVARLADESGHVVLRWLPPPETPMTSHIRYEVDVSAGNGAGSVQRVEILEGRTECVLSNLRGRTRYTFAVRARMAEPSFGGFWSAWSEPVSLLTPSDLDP

ECL signal [1]: 779 ECL signal
ECL signal [2]: 607 ECL signal
ECL signal [3]: 778 ECL signal
ECL signal [4]: 3590 ECL signal
ECL signal [5]: 1470 ECL signal
ECL signal [6]: 322 ECL signal
ECL signal [7]: 375 ECL signal
ECL signal [8]: 388 ECL signal
ECL signal [9]: 1880 ECL signal
ECL signal [10]: 829 ECL signal
ECL signal [11]: 274 ECL signal
ECL signal [12]: 212 ECL signal
ECL signal [13]: 317 ECL signal
ECL signal [14]: 1150 ECL signal
ECL signal [15]: 660 ECL signal
ECL signal [16]: 2220 ECL signal
ECL signal [17]: 1920 ECL signal
ECL signal [18]: 2210 ECL signal
ECL signal [19]: 8160 ECL signal
ECL signal [20]: 3010 ECL signal
B1: Fab VH1-46_IGHD6-13*01_IGHJ4*01 & O1_IGKJ1*01 (Fab, V domains shown)
VH: QVQLVQSGAEVKKPGASVKVSCKASGYTFTSYYMHWVRQAPGQGLEWMGIINPSGGSTSYAQKFQGRVTMTRDTSTSTVYMELSSLRSEDTAVYYCAREGYSSSWYDYFDYWGQGTLVTVSS
VL: DIVMTQTPLSLPVTPGEPASISCRSSQSLLDSDDGNTYLDWYLQKPGQSPQLLIYTLSYRASGVPDRFSGSGSGTDFTLKISRVEAEDVGVYYCMQRIEFPSWTFGQGTKVEIK
notes: Tested as a Fab expressed in E. coli: heavy chain with CH1 plus Flag and His tags from Plasmid A, kappa constant region from Plasmid C

ECL signal [21]: 1070
ECL signal [22]: 9230
ECL signal [23]: 890
ECL signal [24]: 837
ECL signal [25]: 744
ECL signal [26]: 949
ECL signal [27]: 763
ECL signal [28]: 1120
ECL signal [29]: 815
B2: Fab VH6-1_IGHD3-3*01_IGHJ4*01 & V4-3_IGLJ4*01 (Fab, V domains shown)
VH: QVQLQQSGPGLVKPSQTLSLTCAISGDSVSSNSAAWNWIRQSPSRGLEWLGRTYYRSKWYNDYAVSVKSRITINPDTSKNQFSLQLNSVTPEDTAVYYCAREYYDFWSGYYTDYFDYWGQGTLVTVSS
VL: QPVLTQPTSLSASPGASARLTCTLRSGINLGSYRIFWYQQKPESPPRYLLSYYSDSSKHQGSGVPSRFSGSKDASSNAGILVISGLQSEDEADYYCMIWHSSASFVFGGGTQLIIL
notes: Expressed in E. coli as Fab: heavy chain with CH1 plus Flag and His tags from Plasmid A, lambda light chain constant region from Plasmid E; also called Fab No. 3

ECL signal [30]: 1000
ECL signal [31]: 562
ECL signal [32]: 1160
ECL signal [33]: 682
ECL signal [34]: 633
ECL signal [35]: 980
ECL signal [36]: 593
ECL signal [37]: 4110
ECL signal [38]: 652
B3: Fab VH1-46_IGHD3-10*01_IGHJ4*01 & B3_IGKJ1*01 (Fab, V domains shown)
VH: QVQLVQSGAEVKKPGASVKVSCKASGYTFTSYYMHWVRQAPGQGLEWMGIINPSGGSTSYAQKFQGRVTMTRDTSTSTVYMELSSLRSEDTAVYYCAREYYYGSGSYYNDYFDYWGQGTLVTVSS
VL: not shown
notes: Expressed in E. coli as Fab: heavy chain with CH1 plus Flag and His tags from Plasmid A, kappa light chain constant region from Plasmid C; also called Fab No. 5

Kd [39]: ~100 nM
B4: Fab VH1-46_IGHD3-10*01_IGHJ4*01 & B3_IGKJ1*01 (Fab, V domains shown)
VH: QVQLVQSGAEVKKPGASVKVSCKASGYTFTSYYMHWVRQAPGQGLEWMGIINPSGGSTSYAQKFQGRVTMTRDTSTSTVYMELSSLRSEDTAVYYCAREYYYGSGSYYNDYFDYWGQGTLVTVSS
VL: not shown
notes: Fab from E. coli; VH joined to CH1 with Flag and His tags (Plasmid A), VL to kappa CL (Plasmid C)
